Assay results published in patent publication US20260176342A1 (CITRYLL B V, published 2026).
Square brackets hold non-standard residues; d marks the D form. Ends that are not written are not given here. Cit = NC(=O)NCCC[C@H](N)C(=O)O

What was measured:
[1] = target: T1, citrullinated histone 4-derived peptide (SEQ ID NO: 20), C-terminal biotin (human, citrulline at position 3; biotin at the C-terminus); experiment: Octet RED96 off-rate screen, biotinylated peptide on streptavidin biosensors, antibody 72 nM, 30 C
T1 construct: Immobilized on streptavidin biosensors (Octet RED96); also called H4-derived peptide; N-terminal histone 4 peptide
T1 peptide: SGXGKGGKGLGK
Method: Off-rate screening of the isomerization-mutated antibodies was performed on an Octet® RED96 (biomolecule detection system) instrument (Pall ForteBio). All measurements were performed at 30° C. Streptavidin (SA) biosensors were first washed for 50 sec with PBS. 1 μg/ml N-terminal histone 2A (SEQ ID NO: 18) and histone 4 (SEQ ID NO: 20) peptides, containing both a citrulline at position 3 and a biotin at the C-terminus, were immobilized on SA biosensors for 200 sec, washed with PBS for 50 sec and excess reactive streptavidin molecules blocked with EZ-Link™ biocytin for 200 sec. After two additional 50 sec wash steps in PBS, antibodies at a concentration of 72 nM diluted in PBS were allowed to bind to the biosensors for 200 sec. Sensors were subsequently placed in PBS for 4000 sec in order to measure their dissociation rates.
Background signals generated with non-coated biosensors, which have been exposed to the various antibodies as well as signals from coated biosensors that have not been exposed to the various antibodies, have been subtracted before dissociation curves for each antibody were plotted. Both histone 2A and histone 4 dissociation rates constants (kdis×E-07 (1/s)) for each antibody were calculated applying a 1:1 interaction model (fitting local, full) using ForteBio data analysis software 8.1.

[2] = target: T2, citrullinated histone 2A-derived peptide (SEQ ID NO: 18), C-terminal biotin (human); experiment: CMC ELISA, biotinylated peptide on NeutrAvidin-coated plate, anti-human-HRP, OD 450 nm, interpolated on a calibration curve
T2 construct: Captured by its biotin on NeutrAvidin plates (ELISA) or streptavidin biosensors (Octet); also called histone-derived peptide; citrullinated H2A-derived peptide
T2 peptide: SG[Cit]GKQGGKARA-biotin
Method: hMQ22.101j/e samples from week 0, 2, 4, 6 and 8, and hMQ22.101f/g samples from week 0, 3 and 6 were subjected to an in house-validated CMC ELISA. 96-well ELISA plates were coated with NeutrAvidin™ ([…]) by overnight incubation at 4° C. Wells were washed 5 times with PBS-Tween® (polysorbate) 20 (PBS-T) and blocked by a 2 hour incubation with PBS-T+1% Bovine serum albumin (BSA) at room temperature (RT). After 5 more washes with PBS-T, wells were incubated for 1 hour at RT with a histone-derived peptide (SEQ ID NO 18: SGXGKQGGKARA), containing a citrulline (X) at position 3 and a C-terminal biotin (40 ng/well) in PBS-T+0.2% BSA. After another 5 washes with PBS-T, a calibration curve made from a reference lot of hMQ22.101j/e or hMQ22.101f/g by adding to the wells starting at […] and further diluted at a 1:1 ratio until reaching a concentration of 0.66 ng/ml in PBS-T+0.2% BSA. […]
Finally, accelerated stability samples that had been incubated for 0, 2, 3, 4, 6 and 8 weeks at 37° C. were added to the same plate at a concentration of 40 ng/ml in PBS-T+0.2% BSA and incubated for 2 hours at RT. […] Wells were incubated 10 min with TMB substrate before stopping the reaction with 2 M H₂SO₄ after which the optical density was measured at wavelength of 450 nm. […]

B1: hMQ22.101j/e (antibody, V domains shown)
VH: QVQLVQSGAEVKKPGASVKVSCKASGYTFTNYGMHWVRQAPGQGLEWMGWINTYSGEATYAQKFQGRVTMTRDTSISTAYMELSRLRSDDTAVYYCLRGYTYQSFDEGGDYWGQGTLVTVSS
VL: DVVMTQSPLSLPVTLGQPASISCRSSQSLVDSDGKTYLNWFQQRPGQSPRRLIYLVSKLDSGVPDRFSGSGSGTDFTLKISRVEAEDVGVYYCWQGTHFPYTFGQGTKLEIK
notes: Full-size antibody with full-length human heavy and light chains; also called humanized therapeutic antibody with heavy chain hVH22.101j and light chain hVL22.101e; tACPA
B1: binds [1]; binds [2].
